Assay results published in the supplement of paper PMC10201428.
± gives the standard deviation of the averaged measurements.

What was measured:
[1] = system: VchCAST RNA-guided transposition machinery (E. coli BL21(DE3) host, lacZ target); assay: relative integration efficiency (T-LR orientation) vs wild-type transposon end (log2 (normalized fold change)); transposon end mutated: right end (5 bp flank + 75 bp right end); higher = more efficient transposition
Summary of the method: (§1)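 A T7-driven effector plasmid encoding a CRISPR array, tniQ-cas8-cas7-cas6 and tnsA-tnsB-tnsC was co-transformed into E. coli BL21(DE3) together with a pUC57 mini-transposon donor holding barcoded pools of 1549 left-end or 1849 right-end variants. Transformants were plated with 0.1 mM IPTG at 37°C for 18 h. Illumina sequencing of PCR-amplified input plasmids and genomic integration junctions gave barcode abundances, and relative integration efficiency is their output/input fold change, normalised to reference barcodes and log-transformed.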

[2] = system: VchCAST RNA-guided transposition machinery (E. coli BL21(DE3) host, lacZ target); assay: relative integration efficiency (T-RL orientation) vs wild-type transposon end (log2 (normalized fold change)); transposon end mutated: right end (5 bp flank + 75 bp right end); higher = more efficient transposition
Summary of the method: as §1

ACATTTGTTGATACACCCATAAATTGATAATTACAACCATAAGTTGATATTTTTCACACCCATAAATTGATAATTACTCTGATCATAGTCAGACCAACATTGCTACGACCCGTATTCGCACCGACAC
relative integration efficiency (log2) [1]: 0.055 ± 0.036
relative integration efficiency (log2) [2]: -0.622 ± 0.16

ACATTTGTTGATACACCCATAAATTGATAATTACAACCATAAGTTGATATTTTTCACACCCATAAATTGATATTGCCTCTGATCATAGTCAGACCAACATTGCTACGACCCGTATTCGCACCGACAC
relative integration efficiency (log2) [1]: -0.56 ± 0.069
relative integration efficiency (log2) [2]: -0.708 ± 0.17

ACATTTGTTGATACACCCATAAATTGATAATTACAACCATAAGTTGATATTTTTCAGTGGGTATTTAACTATAACGCTCTGATCATAGTCAGACCAACATTGCTACGACCCGTATTCGCACCGACAC
relative integration efficiency (log2) [1]: 2.821 ± 0.028
relative integration efficiency (log2) [2]: -0.128 ± 0.33

ACATTTGTTGATACACCCATAAATTGATAATTACAACCATATATTGATATCTCTCACAACCATAAAATGATAATTACTCTGATCATAGTCAGACCAACATTGCTACGACCCGTATTCGCACCGACAC
relative integration efficiency (log2) [1]: -0.825 ± 0.58
relative integration efficiency (log2) [2]: -0.747 ± 0.26

ACATTTGTTGATACACCCATAAATTGATAATTACAACCATATATTGATATCTCTCACAACCATAAAGTGATATTTACTCTGATCATAGTCAGACCAACATTGCTACGACCCGTATTCGCACCGACAC
relative integration efficiency (log2) [1]: 0.11 ± 0.14
relative integration efficiency (log2) [2]: -0.664 ± 0.34

ACATTTGTTGATACACCCATAAATTGATAATTACAACCATATATTGATATCTCTCACAACCATAAGTTGATATTTTCTCTGATCATAGTCAGACCAACATTGCTACGACCCGTATTCGCACCGACAC
relative integration efficiency (log2) [1]: 0.798 ± 0.25
relative integration efficiency (log2) [2]: 0.516 ± 0.26

ACATTTGTTGATACACCCATAAATTGATAATTACAACCATATATTGATATCTCTCACAACCATATATTGATATCTCCTCTGATCATAGTCAGACCAACATTGCTACGACCCGTATTCGCACCGACAC
relative integration efficiency (log2) [1]: 0.0245 ± 0.11
relative integration efficiency (log2) [2]: -0.949 ± 0.26

ACATTTGTTGATACACCCATAAATTGATAATTACAACCATATATTGATATCTCTCACACCCATAAATTGATAATTACTCTGATCATAGTCAGACCAACATTGCTACGACCCGTATTCGCACCGACAC
relative integration efficiency (log2) [1]: 0.157 ± 0.34
relative integration efficiency (log2) [2]: -0.753 ± 0.22

ACATTTGTTGATACACCCATAAATTGATAATTACAACCATATATTGATATCTCTCACACCCATAAATTGATATTGCCTCTGATCATAGTCAGACCAACATTGCTACGACCCGTATTCGCACCGACAC
relative integration efficiency (log2) [1]: -0.339 ± 0.29
relative integration efficiency (log2) [2]: -0.676 ± 0.13

ACATTTGTTGATACACCCATAAATTGATAATTACAACCATATATTGATATCTCTCAGTGGGTATTTAACTATAACGCTCTGATCATAGTCAGACCAACATTGCTACGACCCGTATTCGCACCGACAC
relative integration efficiency (log2) [1]: 2.39 ± 0.18
relative integration efficiency (log2) [2]: -1.17 ± 0.28

ACATTTGTTGATACACCCATAAATTGATAATTACACCCATAAATTGATAATTATCACAACCATAAAATGATAATTACTCTGATCATAGTCAGACCAACATTGCTACGACCCGTATTCGCACCGACAC
relative integration efficiency (log2) [1]: -0.749 ± 0.39
relative integration efficiency (log2) [2]: -0.366 ± 0.2

ACATTTGTTGATACACCCATAAATTGATAATTACACCCATAAATTGATAATTATCACAACCATAAAGTGATATTTACTCTGATCATAGTCAGACCAACATTGCTACGACCCGTATTCGCACCGACAC
relative integration efficiency (log2) [1]: -0.01 ± 0.22
relative integration efficiency (log2) [2]: -0.445 ± 0.034

ACATTTGTTGATACACCCATAAATTGATAATTACACCCATAAATTGATAATTATCACAACCATAAGTTGATATTTTCTCTGATCATAGTCAGACCAACATTGCTACGACCCGTATTCGCACCGACAC
relative integration efficiency (log2) [1]: -0.206 ± 0.42
relative integration efficiency (log2) [2]: -0.361 ± 0.17

ACATTTGTTGATACACCCATAAATTGATAATTACACCCATAAATTGATAATTATCACAACCATATATTGATATCTCCTCTGATCATAGTCAGACCAACATTGCTACGACCCGTATTCGCACCGACAC
relative integration efficiency (log2) [1]: -0.271 ± 0.04
relative integration efficiency (log2) [2]: -0.596 ± 0.21

ACATTTGTTGATACACCCATAAATTGATAATTACACCCATAAATTGATAATTATCACACCCATAAATTGATAATTACTCTGATCATAGTCAGACCAACATTGCTACGACCCGTATTCGCACCGACAC
relative integration efficiency (log2) [1]: -0.257 ± 0.33
relative integration efficiency (log2) [2]: -0.6 ± 0.15

ACATTTGTTGATACACCCATAAATTGATAATTACACCCATAAATTGATAATTATCACACCCATAAATTGATATTGCCTCTGATCATAGTCAGACCAACATTGCTACGACCCGTATTCGCACCGACAC
relative integration efficiency (log2) [1]: -0.0387 ± 0.31
relative integration efficiency (log2) [2]: -0.116 ± 0.036

ACATTTGTTGATACACCCATAAATTGATAATTACACCCATAAATTGATAATTATCAGTGGGTATTTAACTATAACGCTCTGATCATAGTCAGACCAACATTGCTACGACCCGTATTCGCACCGACAC
relative integration efficiency (log2) [1]: 2.54 ± 0.063
relative integration efficiency (log2) [2]: -0.394 ± 0.0092

ACATTTGTTGATACACCCATAAATTGATAATTACACCCATAAATTGATATTGCTCACAACCATAAAATGATAATTACTCTGATCATAGTCAGACCAACATTGCTACGACCCGTATTCGCACCGACAC
relative integration efficiency (log2) [1]: -0.204 ± 0.23
relative integration efficiency (log2) [2]: -0.918 ± 0.33

ACATTTGTTGATACACCCATAAATTGATAATTACACCCATAAATTGATATTGCTCACAACCATAAAGTGATATTTACTCTGATCATAGTCAGACCAACATTGCTACGACCCGTATTCGCACCGACAC
relative integration efficiency (log2) [1]: -0.114 ± 0.24
relative integration efficiency (log2) [2]: -0.813 ± 0.18

ACATTTGTTGATACACCCATAAATTGATAATTACACCCATAAATTGATATTGCTCACAACCATAAGTTGATATTTTCTCTGATCATAGTCAGACCAACATTGCTACGACCCGTATTCGCACCGACAC
relative integration efficiency (log2) [1]: 0.079 ± 0.1
relative integration efficiency (log2) [2]: -0.802 ± 0.24

ACATTTGTTGATACACCCATAAATTGATAATTACACCCATAAATTGATATTGCTCACAACCATATATTGATATCTCCTCTGATCATAGTCAGACCAACATTGCTACGACCCGTATTCGCACCGACAC
relative integration efficiency (log2) [1]: 0.128 ± 0.24
relative integration efficiency (log2) [2]: -1.02 ± 0.26

ACATTTGTTGATACACCCATAAATTGATAATTACACCCATAAATTGATATTGCTCACACCCATAAATTGATAATTACTCTGATCATAGTCAGACCAACATTGCTACGACCCGTATTCGCACCGACAC
relative integration efficiency (log2) [1]: 0.319 ± 0.23
relative integration efficiency (log2) [2]: -0.735 ± 0.34

ACATTTGTTGATACACCCATAAATTGATAATTACACCCATAAATTGATATTGCTCACACCCATAAATTGATATTGCCTCTGATCATAGTCAGACCAACATTGCTACGACCCGTATTCGCACCGACAC
relative integration efficiency (log2) [1]: 0.393 ± 0.28
relative integration efficiency (log2) [2]: -0.538 ± 0.15

ACATTTGTTGATACACCCATAAATTGATAATTACACCCATAAATTGATATTGCTCAGTGGGTATTTAACTATAACGCTCTGATCATAGTCAGACCAACATTGCTACGACCCGTATTCGCACCGACAC
relative integration efficiency (log2) [1]: 2.63 ± 0.18
relative integration efficiency (log2) [2]: -1.23 ± 0.25

ACATTTGTTGATACACCCATAAATTGATATTGCCAACCATAAAATGATAATTATCACAACCATAAAATGATAATTACTCTGATCATAGTCAGACCAACATTGCTACGACCCGTATTCGCACCGACAC
relative integration efficiency (log2) [1]: -0.058 ± 0.3
relative integration efficiency (log2) [2]: -0.123 ± 0.11
